Test results as given in PMC5517481 (2017).

Legend:
His6-SUMO-K-Ras WT [1] = molecular target: T1, His6-SUMO-K-Ras WT (human, UniProt P01116-2 1-166); assay: FACS; GDP-loaded
His6-SUMO-K-Ras WT [2] = molecular target: T1, His6-SUMO-K-Ras WT; assay: FACS; GppNHp-loaded
[3] = molecular target: K-Ras WT (G domain, residues 1-166) (human, UniProt P01116-2 1-166, biotinylated for BLI (site not stated)); assay: BLI; GppNHp-loaded
[4] = molecular target: H-Ras WT (G domain, residues 1-166) (UniProt P01112 1-166, biotinylated for BLI (site not stated)); assay: BLI; GppNHp-loaded
[5] = molecular target: N-Ras WT (G domain, residues 1-166) (UniProt P01111 1-166, biotinylated for BLI (site not stated)); assay: BLI; GppNHp-loaded

B1: R11.1.6 expressed on the surface of yeast (designed binder)
chain: ATVKFTHQGEEKQVDISKIKWVIRWGQYIWFKYDEDGGAKGWGYVSEKDAPKELLQMLKKR
His6-SUMO-K-Ras WT [1]
  Kd: 2.8 nM
His6-SUMO-K-Ras WT [2]
  Kd: 50.3 nM

B2: SUMO-R11.1.6 fusion protein (designed binder)
chain: B1 chain
[3]
  Kd: 41 nM
[4]
  Kd: 10 nM
[5]
  Kd: 7 nM
